Measured values taken from patent US12630600B2 (MEDIMMUNE LIMITED, priority 2022, dated 2026).
Starred links: 1 amine or outer side, 2 acyl side, 3 side chain; linkers in the order of their positions; H or OH if unused. Non-standard residues stand in square brackets, D forms with d. Groups on a side chain read outwards from the residue. No end group written: not given here. *: point of attachment. C20 diacid = O=C(O)CCCCCCCCCCCCCCCCCCC(=O)*; C18 diacid = O=C(O)CCCCCCCCCCCCCCCCC(=O)*; γGlu = O=C(O)[C@H](CCC(=O)[*:2])N[*:1]; αMeF = C[C@](N)(Cc1ccccc1)C(=O)O; AEEA = NCCOCCOCC(=O)O; Aib = CC(C)(N)C(=O)O

B1: Peptide 415 (peptide)
peptide: H[Aib]QGTFTSDVSK[αMeF]LESK([AEEA-AEEA-γGlu-C18 diacid])RAQDFVRWLEA[Aib]G-OH
modifications: N-terminus assumed
SMILES: CC(C)C[C@H](NC(=O)[C@H](Cc1c[nH]c2ccccc12)NC(=O)[C@H](CCCNC(=N)N)NC(=O)[C@@H](NC(=O)[C@H](Cc1ccccc1)NC(=O)[C@H](CC(=O)O)NC(=O)[C@H](CCC(N)=O)NC(=O)[C@H](C)NC(=O)[C@H](CCCNC(=N)N)NC(=O)[C@H](CCCCNC(=O)COCCOCCNC(=O)COCCOCCNC(=O)CC[C@H](NC(=O)CCCCCCCCCCCCCCCCC(=O)O)C(=O)O)NC(=O)[C@H](CO)NC(=O)[C@H](CCC(=O)O)NC(=O)[C@H](CC(C)C)NC(=O)[C@](C)(Cc1ccccc1)NC(=O)[C@H](CCCCN)NC(=O)[C@H](CO)NC(=O)[C@@H](NC(=O)[C@H](CC(=O)O)NC(=O)[C@H](CO)NC(=O)[C@@H](NC(=O)[C@H](Cc1ccccc1)NC(=O)[C@@H](NC(=O)CNC(=O)[C@H](CCC(N)=O)NC(=O)C(C)(C)NC(=O)[C@@H](N)Cc1c[nH]cn1)[C@@H](C)O)[C@@H](C)O)C(C)C)C(C)C)C(=O)N[C@@H](CCC(=O)O)C(=O)N[C@@H](C)C(=O)NC(C)(C)C(=O)NCC(=O)O
B2: Peptide 418 (peptide)
peptide: H[Aib]QGTFTSDVSK[αMeF]LDTK([AEEA-AEEA-γGlu-γGlu-C20 diacid])RAQDFVAWLEA[Aib]G-OH
modifications: N-terminus assumed
SMILES: CC(C)C[C@H](NC(=O)[C@H](Cc1c[nH]c2ccccc12)NC(=O)[C@H](C)NC(=O)[C@@H](NC(=O)[C@H](Cc1ccccc1)NC(=O)[C@H](CC(=O)O)NC(=O)[C@H](CCC(N)=O)NC(=O)[C@H](C)NC(=O)[C@H](CCCNC(=N)N)NC(=O)[C@H](CCCCNC(=O)COCCOCCNC(=O)COCCOCCNC(=O)CC[C@H](NC(=O)CC[C@H](NC(=O)CCCCCCCCCCCCCCCCCCC(=O)O)C(=O)O)C(=O)O)NC(=O)[C@@H](NC(=O)[C@H](CC(=O)O)NC(=O)[C@H](CC(C)C)NC(=O)[C@](C)(Cc1ccccc1)NC(=O)[C@H](CCCCN)NC(=O)[C@H](CO)NC(=O)[C@@H](NC(=O)[C@H](CC(=O)O)NC(=O)[C@H](CO)NC(=O)[C@@H](NC(=O)[C@H](Cc1ccccc1)NC(=O)[C@@H](NC(=O)CNC(=O)[C@H](CCC(N)=O)NC(=O)C(C)(C)NC(=O)[C@@H](N)Cc1c[nH]cn1)[C@@H](C)O)[C@@H](C)O)C(C)C)[C@@H](C)O)C(C)C)C(=O)N[C@@H](CCC(=O)O)C(=O)N[C@@H](C)C(=O)NC(C)(C)C(=O)NCC(=O)O
B3: Peptide 419 (peptide)
peptide: H[Aib]QGTFTSDVSK[αMeF]LDTK([AEEA-AEEA-γGlu-C18 diacid])RAQDFVRWLE[Aib]E-OH
modifications: N-terminus assumed
SMILES: CC(C)C[C@H](NC(=O)[C@H](Cc1c[nH]c2ccccc12)NC(=O)[C@H](CCCNC(=N)N)NC(=O)[C@@H](NC(=O)[C@H](Cc1ccccc1)NC(=O)[C@H](CC(=O)O)NC(=O)[C@H](CCC(N)=O)NC(=O)[C@H](C)NC(=O)[C@H](CCCNC(=N)N)NC(=O)[C@H](CCCCNC(=O)COCCOCCNC(=O)COCCOCCNC(=O)CC[C@H](NC(=O)CCCCCCCCCCCCCCCCC(=O)O)C(=O)O)NC(=O)[C@@H](NC(=O)[C@H](CC(=O)O)NC(=O)[C@H](CC(C)C)NC(=O)[C@](C)(Cc1ccccc1)NC(=O)[C@H](CCCCN)NC(=O)[C@H](CO)NC(=O)[C@@H](NC(=O)[C@H](CC(=O)O)NC(=O)[C@H](CO)NC(=O)[C@@H](NC(=O)[C@H](Cc1ccccc1)NC(=O)[C@@H](NC(=O)CNC(=O)[C@H](CCC(N)=O)NC(=O)C(C)(C)NC(=O)[C@@H](N)Cc1c[nH]cn1)[C@@H](C)O)[C@@H](C)O)C(C)C)[C@@H](C)O)C(C)C)C(=O)N[C@@H](CCC(=O)O)C(=O)NC(C)(C)C(=O)N[C@@H](CCC(=O)O)C(=O)O
B4: Peptide 416 (peptide)
peptide: H[Aib]QGTFTSDVSK[αMeF]LESK([AEEA-AEEA-γGlu-C20 diacid])RAQDFVRWLEA[Aib]G-OH
modifications: N-terminus assumed
SMILES: CC(C)C[C@H](NC(=O)[C@H](Cc1c[nH]c2ccccc12)NC(=O)[C@H](CCCNC(=N)N)NC(=O)[C@@H](NC(=O)[C@H](Cc1ccccc1)NC(=O)[C@H](CC(=O)O)NC(=O)[C@H](CCC(N)=O)NC(=O)[C@H](C)NC(=O)[C@H](CCCNC(=N)N)NC(=O)[C@H](CCCCNC(=O)COCCOCCNC(=O)COCCOCCNC(=O)CC[C@H](NC(=O)CCCCCCCCCCCCCCCCCCC(=O)O)C(=O)O)NC(=O)[C@H](CO)NC(=O)[C@H](CCC(=O)O)NC(=O)[C@H](CC(C)C)NC(=O)[C@](C)(Cc1ccccc1)NC(=O)[C@H](CCCCN)NC(=O)[C@H](CO)NC(=O)[C@@H](NC(=O)[C@H](CC(=O)O)NC(=O)[C@H](CO)NC(=O)[C@@H](NC(=O)[C@H](Cc1ccccc1)NC(=O)[C@@H](NC(=O)CNC(=O)[C@H](CCC(N)=O)NC(=O)C(C)(C)NC(=O)[C@@H](N)Cc1c[nH]cn1)[C@@H](C)O)[C@@H](C)O)C(C)C)C(C)C)C(=O)N[C@@H](CCC(=O)O)C(=O)N[C@@H](C)C(=O)NC(C)(C)C(=O)NCC(=O)O
B5: Peptide 420 (peptide)
peptide: H[Aib]QGTFTSDVSK[αMeF]LDKK([AEEA-AEEA-γGlu-C18 diacid])RAQDFVRWLL[Aib]E-NH2
modifications: N-terminus assumed
SMILES: CC(C)C[C@H](NC(=O)[C@H](Cc1c[nH]c2ccccc12)NC(=O)[C@H](CCCNC(=N)N)NC(=O)[C@@H](NC(=O)[C@H](Cc1ccccc1)NC(=O)[C@H](CC(=O)O)NC(=O)[C@H](CCC(N)=O)NC(=O)[C@H](C)NC(=O)[C@H](CCCNC(=N)N)NC(=O)[C@H](CCCCNC(=O)COCCOCCNC(=O)COCCOCCNC(=O)CC[C@H](NC(=O)CCCCCCCCCCCCCCCCC(=O)O)C(=O)O)NC(=O)[C@H](CCCCN)NC(=O)[C@H](CC(=O)O)NC(=O)[C@H](CC(C)C)NC(=O)[C@](C)(Cc1ccccc1)NC(=O)[C@H](CCCCN)NC(=O)[C@H](CO)NC(=O)[C@@H](NC(=O)[C@H](CC(=O)O)NC(=O)[C@H](CO)NC(=O)[C@@H](NC(=O)[C@H](Cc1ccccc1)NC(=O)[C@@H](NC(=O)CNC(=O)[C@H](CCC(N)=O)NC(=O)C(C)(C)NC(=O)[C@@H](N)Cc1c[nH]cn1)[C@@H](C)O)[C@@H](C)O)C(C)C)C(C)C)C(=O)N[C@@H](CC(C)C)C(=O)NC(C)(C)C(=O)N[C@@H](CCC(=O)O)C(N)=O
B6: Peptide 417 (peptide)
peptide: H[Aib]QGTFTSDVSK[αMeF]LDTK([AEEA-AEEA-γGlu-γGlu-C18 diacid])RAQDFVAWLEA[Aib]G-OH
modifications: N-terminus assumed
SMILES: CC(C)C[C@H](NC(=O)[C@H](Cc1c[nH]c2ccccc12)NC(=O)[C@H](C)NC(=O)[C@@H](NC(=O)[C@H](Cc1ccccc1)NC(=O)[C@H](CC(=O)O)NC(=O)[C@H](CCC(N)=O)NC(=O)[C@H](C)NC(=O)[C@H](CCCNC(=N)N)NC(=O)[C@H](CCCCNC(=O)COCCOCCNC(=O)COCCOCCNC(=O)CC[C@H](NC(=O)CC[C@H](NC(=O)CCCCCCCCCCCCCCCCC(=O)O)C(=O)O)C(=O)O)NC(=O)[C@@H](NC(=O)[C@H](CC(=O)O)NC(=O)[C@H](CC(C)C)NC(=O)[C@](C)(Cc1ccccc1)NC(=O)[C@H](CCCCN)NC(=O)[C@H](CO)NC(=O)[C@@H](NC(=O)[C@H](CC(=O)O)NC(=O)[C@H](CO)NC(=O)[C@@H](NC(=O)[C@H](Cc1ccccc1)NC(=O)[C@@H](NC(=O)CNC(=O)[C@H](CCC(N)=O)NC(=O)C(C)(C)NC(=O)[C@@H](N)Cc1c[nH]cn1)[C@@H](C)O)[C@@H](C)O)C(C)C)[C@@H](C)O)C(C)C)C(=O)N[C@@H](CCC(=O)O)C(=O)N[C@@H](C)C(=O)NC(C)(C)C(=O)NCC(=O)O
B7: Peptide 421 (peptide)
peptide: H[Aib]QGTFTSDVSK[αMeF]LDRK([AEEA-AEEA-γGlu-C18 diacid])RAQDFVRWLL[Aib]TE-OH
modifications: N-terminus assumed
SMILES: CC(C)C[C@H](NC(=O)[C@H](Cc1c[nH]c2ccccc12)NC(=O)[C@H](CCCNC(=N)N)NC(=O)[C@@H](NC(=O)[C@H](Cc1ccccc1)NC(=O)[C@H](CC(=O)O)NC(=O)[C@H](CCC(N)=O)NC(=O)[C@H](C)NC(=O)[C@H](CCCNC(=N)N)NC(=O)[C@H](CCCCNC(=O)COCCOCCNC(=O)COCCOCCNC(=O)CC[C@H](NC(=O)CCCCCCCCCCCCCCCCC(=O)O)C(=O)O)NC(=O)[C@H](CCCNC(=N)N)NC(=O)[C@H](CC(=O)O)NC(=O)[C@H](CC(C)C)NC(=O)[C@](C)(Cc1ccccc1)NC(=O)[C@H](CCCCN)NC(=O)[C@H](CO)NC(=O)[C@@H](NC(=O)[C@H](CC(=O)O)NC(=O)[C@H](CO)NC(=O)[C@@H](NC(=O)[C@H](Cc1ccccc1)NC(=O)[C@@H](NC(=O)CNC(=O)[C@H](CCC(N)=O)NC(=O)C(C)(C)NC(=O)[C@@H](N)Cc1c[nH]cn1)[C@@H](C)O)[C@@H](C)O)C(C)C)C(C)C)C(=O)N[C@@H](CC(C)C)C(=O)NC(C)(C)C(=O)N[C@H](C(=O)N[C@@H](CCC(=O)O)C(=O)O)[C@@H](C)O

Molecular target: human GLP-1 receptor (human, UniProt P43220)
Test: cell-based or functional assay

cAMP production EC50	Binder
0.0147 nM	B1
0.0881 nM	B2
0.0969 nM	B3
0.0677 nM	B4
0.0231 nM	B5
0.0339 nM	B6
0.0873 nM	B7

Molecular target: human glucagon receptor (human, UniProt P47871)
Test: cell-based or functional assay

cAMP production EC50	Binder
0.301 nM	B1
0.222 nM	B2
0.264 nM	B3
0.581 nM	B4
0.0369 nM	B5
0.0164 nM	B6
0.18 nM	B7
